Some results are limits rather than exact numbers.

Data set [1] deals with T1, yArgRS (yeast cytoplasmic arginyl-tRNA synthetase) (Saccharomyces cerevisiae, UniProt Q05506 1-607).
T1 sequence: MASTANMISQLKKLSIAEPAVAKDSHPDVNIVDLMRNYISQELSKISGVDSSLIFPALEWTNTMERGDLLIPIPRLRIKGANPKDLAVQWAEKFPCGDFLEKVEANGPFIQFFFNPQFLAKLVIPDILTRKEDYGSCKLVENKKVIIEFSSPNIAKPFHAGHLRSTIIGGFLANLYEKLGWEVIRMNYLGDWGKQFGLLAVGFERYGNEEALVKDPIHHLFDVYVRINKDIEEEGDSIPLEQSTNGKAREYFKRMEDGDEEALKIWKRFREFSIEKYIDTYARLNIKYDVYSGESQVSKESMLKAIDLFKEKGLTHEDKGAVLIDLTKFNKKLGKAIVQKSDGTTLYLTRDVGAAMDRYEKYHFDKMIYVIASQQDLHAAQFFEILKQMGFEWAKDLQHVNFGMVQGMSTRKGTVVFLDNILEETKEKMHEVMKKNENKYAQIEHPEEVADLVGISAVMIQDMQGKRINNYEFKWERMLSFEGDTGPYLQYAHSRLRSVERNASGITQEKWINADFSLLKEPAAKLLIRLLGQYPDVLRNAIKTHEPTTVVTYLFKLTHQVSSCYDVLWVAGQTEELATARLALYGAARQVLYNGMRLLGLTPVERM
The experiment in a line: EMSA + tRNA microarray (MIST); 0.8 uM yArgRS, total tRNA competition, 10 mM Mg2+; 25 mM Tris-HCl pH 7.5, 75 mM KCl, 10 mM MgCl2, 25% glycerol; 15 min at room temperature (Fig 1 legend: on ice); native 6% PAGE at room temperature. The conditions noted are these: protein: recombinant, tags: none (tag-free native recombinant, E. coli TB1, pTrc99B), label: 5'-32P, tRNA cloverleaf. On the technique in general: Mobility shift assays separate free from complexed probe on a gel.

In data set [2] the target is T1, yArgRS (yeast cytoplasmic arginyl-tRNA …). The experiment in a line: EMSA + tRNA microarray (MIST); total tRNA competition, 10 mM Mg2+; highest among tRNA Arg; 25 mM Tris-HCl pH 7.5, 75 mM KCl, 10 mM MgCl2, 25% glycerol; 15 min at room temperature (Fig 1 legend: on ice); native 6% PAGE at room temperature. The following applies: protein: recombinant; tags: none (tag-free native recombinant, E. coli TB1, pTrc99B); label: 5'-32P; tRNA cloverleaf.

Data set [3] shares this target. The experiment in a line: EMSA; 0.5 uM yArgRS, single tRNA, 10 mM Mg2+; 25 mM Tris-HCl pH 7.5, 75 mM KCl, 10 mM MgCl2, 25% glycerol; 15 min at room temperature (Fig 1 legend: on ice); native 6% PAGE at room temperature. The conditions noted are these: protein: recombinant, tags: none (tag-free native recombinant, E. coli TB1, pTrc99B), label: 32P, tRNA cloverleaf.
Data set [4] has the same target. The experiment in a line: EMSA + tRNA microarray (MIST); total tRNA competition, 10 mM Mg2+; strong affinity; 25 mM Tris-HCl pH 7.5, 75 mM KCl, 10 mM MgCl2, 25% glycerol; 15 min at room temperature (Fig 1 legend: on ice); native 6% PAGE at room temperature. The conditions noted are these: protein: recombinant; tags: none (tag-free native recombinant, E. coli TB1, pTrc99B); label: 5'-32P; tRNA cloverleaf, long variable loop (class 2).

For data set [5] the target is unchanged. The experiment in a line: EMSA + tRNA microarray (MIST); total tRNA competition, 10 mM Mg2+; 25 mM Tris-HCl pH 7.5, 75 mM KCl, 10 mM MgCl2, 25% glycerol; 15 min at room temperature (Fig 1 legend: on ice); native 6% PAGE at room temperature. The following applies: protein: recombinant; tags: none (tag-free native recombinant, E. coli TB1, pTrc99B); label: 5'-32P; tRNA cloverleaf.

B1: native tRNA Ser (AGA) (structured_RNA)
RNA: GGCAACUUGGCCGAGUGGUUAAGGCGAAAGAUUAGAAAUCUUUUGGGCUUUGCCCGCGCAGGUUCGAGUCCUGCAGUUGUCG
modifications: native post-transcriptional modifications (not specified)
Consider B1, for which, in data set [1] (long variable loop (class 2)), the binding signal is greater than 3 fold enrichment vs input.

B2: native tRNA Arg (UCU) (structured_RNA)
RNA: GCUCGCGUGGCGUAAUGGCAACGCGUCUGACUUCUAAUCAGAAGAUUAUGGGUUCGACCCCCAUCGUGAGUG
modifications: native post-transcriptional modifications (not specified)
As for B2, the binding result in data set [2] was “binds”.

B3: tRNA Leu (GAG) transcript (structured_RNA)
RNA: GGUACUCUGGCCGAGUGGUCUAAGGCGUCAGGUCGAGGUCCUGAUCUCUUCGGAGGCGCGGGUUCAAACCCCGCGGGUAUCA
modifications: none (unmodified transcript)
For the molecule B3, in data set [3] (long variable loop (class 2)), the binding signal is greater than 60 % complexed.

B4: native tRNA Leu (GAG) (structured_RNA)
RNA: GGUACUCUGGCCGAGUGGUCUAAGGCGUCAGGUCGAGGUCCUGAUCUCUUCGGAGGCGCGGGUUCAAACCCCGCGGGUAUCA
modifications: native post-transcriptional modifications (not specified)
Turning to B4, the binding signal in data set [1] (long variable loop (class 2)) was greater than 3 fold enrichment vs input.

B5: native tRNA Arg (CCU) (structured_RNA)
RNA: GUUCCGUUGGCGUAAUGGUAACGCGUCUCCCUCCUAAGGAGAAGACUGCGGGUUCGAGUCCCGUACGGAACG
modifications: native post-transcriptional modifications (not specified)
On to B5, for which, in data set [1], the binding signal is less than 0.3 fold enrichment vs input.

B6: native tRNA Leu (UAA) (structured_RNA)
RNA: GGAGGGUUGGCCGAGUGGUCUAAGGCGGCAGACUUAAGAUCUGUUGGACGGUUGUCCGCGCGAGUUCGAACCUCGCAUCCUUCA
modifications: native post-transcriptional modifications (not specified)
Take B6: the binding result in data set [4] was “binds”.

B7: native tRNA Gly (GCC) (structured_RNA)
RNA: GCGCAAGUGGUUUAGUGGUAAAAUCCAACGUUGCCAUCGUUGGGCCCCCGGUUCGAUUCCGGGCUUGCGCA
modifications: native post-transcriptional modifications (not specified)
For B7, in data set [5], the binding signal is 4.5 fold lower apparent affinity than tRNA Leu (GAG).

B8: tRNA Asp (GUC) transcript (structured_RNA)
RNA: UCCGUGAUAGUUUAAUGGUCAGAAUGGGCGCUUGUCGCGUGCCAGAUCGGGGUUCAAUUCCCCGUCGCGGAG
modifications: none (unmodified transcript)
With B8, in data set [3], the binding signal turned out to be 35 % complexed.

B9: tRNA Pro (AGG) transcript (structured_RNA)
RNA: GGGCGUGUGGUCUAGAGGUAUGAUUCUCGCUUAGGGUGCGGGAGGUCCCGGGUUCGAGUCCCGGCUCGCCCC
modifications: none (unmodified transcript)
Regarding B9, the binding signal in data set [3] came to 19 % complexed.

B10: native tRNA Pro (AGG) (structured_RNA)
RNA: GGGCGUGUGGUCUAGAGGUAUGAUUCUCGCUUAGGGUGCGGGAGGUCCCGGGUUCGAGUCCCGGCUCGCCCC
modifications: native post-transcriptional modifications (not specified)
As to B10, in data set [1], the binding signal is less than 0.3 fold enrichment vs input.

B11: native tRNA Gly (TCC) (structured_RNA)
RNA: GGGCGGUUAGUGUAGUGGUUAUCAUCCCACCCUUCCAAGGUGGGGACACGGGUUCGAUUCUCGUACCGCUCA
modifications: native post-transcriptional modifications (not specified)
Regarding B11, the binding signal in data set [1] was less than 0.3 fold enrichment vs input.

B12: native tRNA Ile (GAT) (structured_RNA)
RNA: GAAACUAUAAUUCAAUUGGUUAGAAUAGUAUUUUGAUAAGGUACAAAUAUAGGUUCAAUCCCUGUUAGUUUCA
modifications: native post-transcriptional modifications (not specified)
For B12, in data set [1], the binding signal is less than 0.3 fold enrichment vs input.

Values taken from article PMC4465971, “MIST, a Novel Approach to Reveal Hidden Substrate Specificity in Aminoacyl-tRNA Synthetases”.
